According to patent US20160067316A1, “Selective Sensitization of Cancer Cells to, and Selective Protection of Non-Cancer Cells from Genotoxic Therapies” (Board of Supervisors of Louisiana State University and …, priority 2014, published 2016):

Tests used:
[1] = system: TAT-MS-TLK1B
[2] = biological target: histone H3
[3] = biological target: histone H3 (Homo sapiens, UniProt P68431); assay: Kinase activity by histone H3 Ser10 phosphorylation (immunoblot); assay type: biochemical; conditions: in vitro, kinase buffer at 30° C; data not shown
Procedure: In the next attempt, the MS was inserted 5′ to the kinase domain of TLK1B. The recombinant TAT-TL-MS-K protein was produced, purified, and the activity of the protein was analyzed in vitro. […] Activity of the TAT-TL-MS-K was monitored indirectly by evaluation of histone H3 Seri 0 phosphorylation. Recombinant TAT-TLK1B or TAT-TL-MS-K was reacted with histone H3 at ratios of 1:10, 1:5, or 1:1 in a kinase buffer at 30° C. Reactions were loaded onto SDS-PAGE gels, and immunoblotted against anti-Ser10 H3 (Millipore). […] The functional, MMP-sensitive TAT-TL-MS-K will be used to confirm transduction in normal and cancer cells, and the ability of TAT-TL-MS-K to sensitize cancer cells such as head and neck cancer cells to radiation.

[4] = biological target: T1, MT1-MMP catalytic domain (Homo sapiens, UniProt P50281); assay: In vitro cleavage by MT1-MMP catalytic domain (anti-His immunoblot); assay type: biochemical; conditions: for sensitivity to MT1-MMP cleavage: incubated with recombinant MT1-MMP catalytic enzyme
T1 construct: reacted with the MT1-MMP catalytic domain (EMD Millipore) at 22° C; purchased Calbiochem / EMD Millipore
Procedure: FIG. 3 depicts anti-His immunoblotting of TAT-TLK1B or TAT-MS-TLK1B, reacted with the MT1-MMP catalytic domain (EMD Millipore) at 22° C., as a function of time. 1.5 μg TAT-TLK1B, TAT-MS-TLK1B or TAT-TL-MS-K was reacted with 0.02 mU MT1-MMP, catalytic domain (Calbiochem) in reaction buffer containing 50 mM Tris pH 7.5, 150 mM NaCl, 5 mM CaCl2. The reactions were incubated at 22° C. for the indicated times (10, 20, 30, 60, or 120 minutes). […] Although MT1-MMP has a preference for the preferred cleavage site motif, that preference is neither strict nor absolute. Thus other proteins will be cleaved as well; what is important is the relative sensitivity of MS-containing proteins to MT1-MMP cleavage.

[5] = system: rat salivary glands; conditions: delivered directly to rat salivary glands; preclinical, Sunavala-Dossabhoy 2012; cited from earlier work
[6] = system: HNSCC cells (cell line SCC40); assay: Protein transduction into SCC40 cells (anti-hemagglutinin immunoblot); assay type: cell-based; conditions: 40 μg protein, 6 hours after protein transduction
Procedure: HNSCC cells (cell line SCC40) were cultured on rat tail type I collagen plates in DMEM/0.1% BSA for 3 days before addition of 40 μg TAT-TLK1B or TAT-MS-TLK1B. Control cells (Untreated cells, Untx) were treated with an equal volume of OPTI-MEM™ reduced serum medium—a modification of Eagle's Minimum Essential Media, buffered with HEPES and sodium bicarbonate, and supplemented with hypoxanthine, thymidine, sodium pyruvate, L-glutamine, trace elements, and growth factors. FIG. 4A depicts the results of immunoblotting the respective cell lysates with anti-(MT1-MMP catalytic domain) antibody (Millipore). The arrow at 68 kD corresponds to pro-MT1-MMP. […] The 52 kD and 55 kD proteins were products of autocatalytic cleavage of MT1-MMP. […] Active MT1-MMP is membrane-bound, and is responsible for cleaving and activating pro-MMP-2 to active MMP-2. Active MT1-MMP can also undergo autocatalytic processing. The presence of a substrate such as TAT-MS-TLK1B or TAT-TL-MS-K will decrease the MT1-MMP autocatalysis. […] In other words, the observed decrease in MT1-MMP auto-cleavage is indirect evidence that the recombinant TAT-MS-fusion protein is being cleaved as designed.
FIG. 4B depicts results of immunoblotting the respective cell lysates with horseradish peroxidase-conjugated anti-hemagglutinin (Sigma) 6 hours after protein transduction. […]

Q: For “MT1-MMP expressed by HNSCC cell line SCC40”, which “MT1-MMP autoproteolytic products (52 kD and 55 kD) in SCC40 lysates, immunoblot” value [1] is on record?
A: Its value is “The autoproteolytic products declined sharply in the presence of the TAT-MS-TLK1B”.

B1: TAT-TL-MS-K fusion protein (protein)
chain: MHHHHHHSSGLVPRGSGMKETAAAKFERQHMDSPDLGTDDDDKAMAISDPNSSSVDKLGYGRKKRRQRRRGGSTMGGYPYDVPDYAGSMLKLAALESNKIQDLEKKEGRIDDLLRANCDLRRQIDEQQKLLEKYKERLNKCISMSKKLLIEKSTQEKLSSREKSMQDRLRLGHFTTVRHGASFTEQWTDGFAFQNLVKQQEWVNQQREDIERQRKLLAKRKPPTANNSQAPSTNSEPKQRKNKAVNGAENDPFVRPNLPQLLTLAEYHEQEEIFKLRLGHLKKEEAEIQAELERLERVRNLHIRELKRINNEDNSQFKAAAVPLSLRSGTSDHPTLNERYLLLHLLGRGGFSEVYKAFDLYEQRYAAVKIHQLNKSWRDEKKENYHKHACREYRIHKELDHPRIVKLYDYFSLDTDTFCTVLEYCEGNDLDFYLKQHKLMSEKEARSIVMQIVNALRYLNEIKPPIIHYDLKPGNILLVDGTACGEIKITDFGLSKIMDDDSYGVDGMDLTSQGAGTYWYLPPECFVVGKEPPKISNKVDVWSVGVIFFQCLYGRKPFGHNQSQQDILQENTILKATEVQFPVKPVVSSEAKAFIRRCLAYRKEDRFDVHQLANDPYLLPHMRRSNSSGNLHMAGLTASPTPPSSSIITY
Q: For B1, which “phosphorylation of histone H3 Ser10, immunoblot with anti-Ser10 H3” value [2] is on record?
A: Its value is “TAT-TL-MS-K retained the native kinase activity, as indicated by phosphorylation of histone H3 (data not shown)”.

B2: TAT-TL-MS-K: SEQ ID NO: 4, fusion protein with MT1-MMP cleavage site inserted 5′ to the kinase domain of TLK1B (protein)
chain: B1 chain
modifications: TAT-TL-MS-K fusion protein
Q: With B2 as the molecule, how does the “kinase activity (phosphorylation of histone H3 Ser-10)” value [3] read?
A: Its value is “retained the native kinase activity”.

Q: What about the “sensitivity to MT1-MMP cleavage” value [4] of the same molecule?
A: Its value is “more sensitive to MT1-MMP cleavage than was TAT-TLK1B”.

B3: TAT-TLK1B: SEQ ID NO: 2, TAT-TLK1B fusion protein without the MS cleavage site (protein)
chain: MHHHHHHSSGLVPRGSGMKETAAAKFERQHMDSPDLGTDDDDKAMAISDPNSSSVDKLGYGRKKRRQRRRGGSTMSGYPYDVPDYAGSMVKLAALESNKIQDLEKKEGRIDDLLRANCDLRRQIDEQQKLLEKYKERLNKCISMSKKLLIEKSTQEKLSSREKSMQDRLRLGHFTTVRHGASFTEQWTDGFAFQNLVKQQEWVNQQREDIERQRKLLAKRKPPTANNSQAPSTNSEPKQRKNKAVNGAENDPFVRPNLPQLLTLAEYHEQEEIFKLRLGHLKKEEAEIQAELERLERVRNLHIRELKRINNEDNSQFKDHPTLNERYLLLHLLGRGGFSEVYKAFDLYEQRYAAVKIHQLNKSWRDEKKENYHKHACREYRIHKELDHPRIVKLYDYFSLDTDTFCTVLEYCEGNDLDFYLKQHKLMSEKEARSIVMQIVNALRYLNEIKPPIIHYDLKPGNILLVDGTACGEIKITDFGLSKIMDDDSYGVDGMDLTSQGAGTYWYLPPECFVVGKEPPKISNKVDVWSVGVIFFQCLYGRKPFGHNQSQQDILQENTILKATEVQFPVKPVVSSEAKAFIRRCLAYRKEDRFDVHQLANDPYLLPHMRRSNSSGNLHMAGLTASPTPPSSSIITY
modifications: TAT-TLK1B fusion protein
Q: Which radiation-induced xerostomia [5] does the source give for B3 here?
A: Its radiation-induced xerostomia is “mitigate radiation-induced xerostomia”.

Q: What about the “transduction into SCC40 cancer cells” value [6] of the same molecule?
A: Its value is “efficiently transduced”.

Q: And the “cleavage by MT1-MMP catalytic domain after 120 minutes” value ([4]; 1.5 μg protein, 0.02 mU MT1-MMP, 22° C, 120 minutes)?
A: Its value is “still showed substantial activity”.

Q: And the “sensitivity to MT1-MMP cleavage” value [4]?
A: The value was “also cleaved by the enzyme, although not as rapidly”.

B4: TAT-TLK-MS fusion protein (protein)
chain: MHHHHHHSSGLVPRGSGMKETAAAKFERQHMDSPDLGTDDDDKAMAISDPNSSSVDKLGYGRKKRRQRRRGGSTMSGYPYDVPDYAGSMVKLAALESNKIQDLEKKEGRIDDLLRANCDLRRQIDEQQKLLEKYKERLNKCISMSKKLLIEKSTQEKLSSREKSMQDRLRLGHFTTVRHGASFTEQWTDGFAFQNLVKQQEWVNQQREDIERQRKLLAKRKPPTANNSQAPSTNSEPKQRKNKAVNGAENDPFVRPNLPQLLTLAEYHEQEEIFKLRLGHLKKEEAEIQAELERLERVRNLHIRELKRINNEDNSQFKDHPTLNERYLLLHLLGRGGFSEVYKAFDLYEQRYAAVKIHQLNKSWRDEKKENYHKHACREYRIHKELDHPRIVKLYDYFSLDTDTFCTVLEYCEGNDLDFYLKQHKLMSEKEARSIVMQIVNALRYLNEIKPPIIHYDLKPGNILLVDGTACGEIKITDFGLSKIMDDDSYGVDGMDLTSQGAGTYWYLPPECFVVGKEPPKISNKVDVWSVGVIFFQCLYGRKPFGHNQSQQDILQENTILKATEVQFPVKGSVPLSLRSGTPVVSSEAKAFIRRCLAYRKEDRFDVHQLANDPYLLPHMRRSNSSGNLHMAGLTASPTPPSSSIITY
Q: Which “phosphorylation of histone H3 Ser-10 (kinase activity)” value [2] does the source give for B4 here?
A: The value was “would not phosphorylate the TLK substrate, histone H3 Ser-10”.

B5: TAT-TLK-MS: SEQ ID NO: 3, fusion protein with MT1-MMP cleavage site in a presumptive loop towards the carboxy terminus (protein)
chain: B4 chain
modifications: TAT-TLK-MS fusion protein
Q: For B5, which “kinase activity (phosphorylation of histone H3 Ser-10)” value [3] is on record?
A: Its value is “would not phosphorylate the TLK substrate”.

Q: What about the “sensitivity to MT1-MMP cleavage” value [4] of the same molecule?
A: The value was “sensitive to cleavage”.
